Four molecules from patent publication US20200407419A1 (LONZA SALES, published 2020) can be followed below.

Assay [1] concerns the target IL-7 receptor (IL-7R) on PBMCs (UniProt P16871). The experiment in a line: cell-based or functional assay.
The target of a further assay is CD40 on human B-cells (human, UniProt P25942 21-277). Put plainly: cell-based or functional assay.
Chain of CD40 on human B-cells (P25942 21-277): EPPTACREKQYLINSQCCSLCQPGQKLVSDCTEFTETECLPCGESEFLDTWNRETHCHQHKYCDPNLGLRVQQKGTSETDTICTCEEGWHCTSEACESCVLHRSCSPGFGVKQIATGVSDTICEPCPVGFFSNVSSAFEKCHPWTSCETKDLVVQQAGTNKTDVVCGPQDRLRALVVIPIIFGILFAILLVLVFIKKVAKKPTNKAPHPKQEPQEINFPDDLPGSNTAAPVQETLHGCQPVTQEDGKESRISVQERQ

Chain of IL-7 receptor (IL-7R) on PBMCs (P16871 21-459 limits assumed): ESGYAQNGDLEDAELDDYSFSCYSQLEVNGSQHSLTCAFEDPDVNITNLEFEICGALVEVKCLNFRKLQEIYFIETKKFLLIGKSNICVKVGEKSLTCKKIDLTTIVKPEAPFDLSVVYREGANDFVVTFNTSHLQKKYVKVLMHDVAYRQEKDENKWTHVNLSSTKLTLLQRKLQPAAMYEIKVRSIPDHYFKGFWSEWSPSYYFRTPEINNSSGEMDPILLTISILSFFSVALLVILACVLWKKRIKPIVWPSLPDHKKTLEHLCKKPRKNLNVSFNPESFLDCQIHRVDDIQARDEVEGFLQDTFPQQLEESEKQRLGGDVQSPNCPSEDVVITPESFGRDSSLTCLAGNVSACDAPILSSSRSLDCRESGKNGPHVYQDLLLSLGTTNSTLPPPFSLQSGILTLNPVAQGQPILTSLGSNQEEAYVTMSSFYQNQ

“IL-7 exosomes from the pDisplay plasmid encoding a fusion of IL-7 and PDGF Receptor (ligand)” gave an IC50 (p/ml) of reduction of IL-7R levels on PBMCs in assay [1] of 1.1e+11 p/ml. For the molecule “exosomes with trimeric CD40L-PTGFRN construct pCB-527 (PTGFRN-trimeric CD40L-GFP) (ligand)”, in the assay with CD40 on human B-cells, the EC50 of B-cell activation (CD69 positivity on B-cells), ng/mL of CD40L is 1.89 ng/mL and the EC50 of B-cell activation (CD69 positivity on B-cells), particles/mL was determined as 4.53e+08 particles/mL.

For the molecule “recombinant human CD40L (Biolegend, Catalog No. 591702) (from UniProt P29965 113-261) (ligand)”, in the assay with CD40 on human B-cells, the EC50 of B-cell activation (CD69 positivity on B-cells), ng/mL of CD40L is 28.5 ng/mL.

B1: exosomes with trimeric CD40L-PTGFRN construct pCB-766 (tag-less, lacking the C-terminal GFP) (ligand)
chain: MQKGDQNPQIAAHVISEASSKTTSVLQWAEKGYYTMSNNLVTLENGKQLTVKRQGLYYIYAQVTFCSNREASSQAPFIASLCLKSPGRFERILLRAANTHSSAKPCGQQSIHLGGVFELQPGASVFVNVTDPSQVSHGTGFTSFGLLKLGSGGSGGSGGSGMQKGDQNPQIAAHVISEASSKTTSVLQWAEKGYYTMSNNLVTLENGKQLTVKRQGLYYIYAQVTFCSNREASSQAPFIASLCLKSPGRFERILLRAANTHSSAKPCGQQSIHLGGVFELQPGASVFVNVTDPSQVSHGTGFTSFGLLKLGSGGSGGSGGSGMQKGDQNPQIAAHVISEASSKTTSVLQWAEKGYYTMSNNLVTLENGKQLTVKRQGLYYIYAQVTFCSNREASSQAPFIASLCLKSPGRFERILLRAANTHSSAKPCGQQSIHLGGVFELQPGASVFVNVTDPSQVSHGTGFTSFGLLKLSAGGGGSGGGGSRVVRVPTATLVRVVGTELVIPCNVSDYDGPSEQNFDWSFSSLGSSFVELASTWEVGFPAQLYQERLQRGEILLRRTANDAVELHIKNVQPSDQGHYKCSTPSTDATVQGNYEDTVQVKVLADSLHVGPSARPPPSLSLREGEPFELRCTAASASPLHTHLALLWEVHRGPARRSVLALTHEGRFHPGLGYEQRYHSGDVRLDTVGSDAYRLSVSRALSADQGSYRCIVSEWIAEQGNWQEIQEKAVEVATVVIQPSVLRAAVPKNVSVAEGKELDLTCNITTDRADDVRPEVTWSFSRMPDSTLPGSRVLARLDRDSLVHSSPHVALSHVDARSYHLLVRDVSKENSGYYYCHVSLWAPGHNRSWHKVAEAVSSPAGVGVTWLEPDYQVYLNASKVPGFADDPTELACRVVDTKSGEANVRFTVSWYYRMNRRSDNVVTSELLAVMDGDWTLKYGERSKQRAQDGDFIFSKEHTDTFNFRIQRTTEEDRGNYYCVVSAWTKQRNNSWVKSKDVFSKPVNIFWALEDSVLVVKARQPKPFFAAGNTFEMTCKVSSKNIKSPRYSVLIMAEKPVGDLSSPNETKYIISLDQDSVVKLENWTDASRVDGVVLEKVQEDEFRYRMYQTQVSDAGLYRCMVTAWSPVRGSLWREAATSLSNPIEIDFQTSGPIFNASVHSDTPSVIRGDLIKLFCIITVEGAALDPDDMAFDVSWFAVHSFGLDKAPVLLSSLDRKGIVTTSRRDWKSDLSLERVSVLEFLLQVHGSEDQDFGNYYCSVTPWVKSPTGSWQKEAEIHSKPVFITVKMDVLNAFKYPLLIGVGLSTVIGLLSCLIGYCSSHWCCKKEVQETRRERRRLMSMEMD
Turning to B1, in the assay with CD40 on human B-cells, the “EC50 of B-cell activation (CD69 positivity on B-cells), ng/mL of CD40L” value came to 1.68 ng/mL and the “EC50 of B-cell activation (CD69 positivity on B-cells), particles/mL” value is 6.63e+08 particles/mL.
